The target of assay [1] is purified PP2A/B55α holoenzyme (trimeric Flag-B55α/PP2A holoenzyme), P63151;P30153;P67775. As to the kind of experiment: peptide competition of GST-p107 R1R2 pull-down of purified PP2A/B55α, western blot quantified with ImageJ. Conditions: lower B55α signal = peptide competes for B55α, read off a plot. (In general: A western blot detects proteins with antibodies after separation by electrophoresis.)

The next assay concerns the target Flag-pRB (UniProt P06400). In words: co-immunoprecipitation (anti-Myc IP), western blot quantitation. To be noted: 293T cells, co-transfected; parent: est. 1.0; read off a plot.
The next assay addresses PP2A/A. In words: YFP pulldown, mass spectrometry. Conditions: -log10 p-value est. 2.2; read off a plot.
For another assay, the target named is B55α. In words: YFP pulldown, mass spectrometry. To be noted: -log10 p-value est. 2.6; read off a plot.
Assay [2] has as its target T1, purified monomeric full-length B55α (M1-N447) (UniProt P63151 1-447).
T1 construct: B55α M1-N447; also called B55α_(1-447); purified B55α; source: Expi293F, transfected, purified (GFP-nanobody beads, TEV cleavage, Mono Q); not shown: His6, N-terminal, cleaved; GFP, N-terminal, cleaved
T1 sequence (looked up): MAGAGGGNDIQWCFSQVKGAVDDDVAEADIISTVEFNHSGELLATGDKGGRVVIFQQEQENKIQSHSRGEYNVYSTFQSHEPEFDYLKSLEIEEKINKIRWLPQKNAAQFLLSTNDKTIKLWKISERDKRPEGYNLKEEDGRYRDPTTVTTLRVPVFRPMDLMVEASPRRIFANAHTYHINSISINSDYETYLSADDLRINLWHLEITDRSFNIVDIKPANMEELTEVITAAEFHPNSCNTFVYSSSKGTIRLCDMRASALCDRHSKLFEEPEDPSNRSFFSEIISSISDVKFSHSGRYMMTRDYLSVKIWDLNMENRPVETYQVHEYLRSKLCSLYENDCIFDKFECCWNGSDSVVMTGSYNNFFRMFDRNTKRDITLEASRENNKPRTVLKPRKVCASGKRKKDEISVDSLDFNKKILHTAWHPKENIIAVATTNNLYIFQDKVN
As to the kind of experiment: NMR titration; 2D [1H,15N] HSQC of 15N-labeled p107 (M612-S687) with and without unlabeled B55α mixed at 1:1 ratio; 283 K; 20 mM sodium phosphate pH 6.8, 250 or 50 mM NaCl, 0.5 mM TCEP. To be noted: both partners purified.

Setting [3] is: Peptides (at 300 µM), no-peptide control est. 0.68, parent: est. 0.08.
[4] abbreviates: Peptides (at 300 µM), no-peptide control est. 0.72, parent: est. 0.32.
Where [5] appears, read: peptide 120 µM, no-peptide control est. 0.68.
[6] abbreviates: peptide 240 µM, no-peptide control est. 0.68, parent: est. 0.07.
Setting [7] is: Peptides (at 300 µM), no-peptide control est. 0.68, parent: est. 0.09.

Flag-pRB, sequence (P06400 whole entry): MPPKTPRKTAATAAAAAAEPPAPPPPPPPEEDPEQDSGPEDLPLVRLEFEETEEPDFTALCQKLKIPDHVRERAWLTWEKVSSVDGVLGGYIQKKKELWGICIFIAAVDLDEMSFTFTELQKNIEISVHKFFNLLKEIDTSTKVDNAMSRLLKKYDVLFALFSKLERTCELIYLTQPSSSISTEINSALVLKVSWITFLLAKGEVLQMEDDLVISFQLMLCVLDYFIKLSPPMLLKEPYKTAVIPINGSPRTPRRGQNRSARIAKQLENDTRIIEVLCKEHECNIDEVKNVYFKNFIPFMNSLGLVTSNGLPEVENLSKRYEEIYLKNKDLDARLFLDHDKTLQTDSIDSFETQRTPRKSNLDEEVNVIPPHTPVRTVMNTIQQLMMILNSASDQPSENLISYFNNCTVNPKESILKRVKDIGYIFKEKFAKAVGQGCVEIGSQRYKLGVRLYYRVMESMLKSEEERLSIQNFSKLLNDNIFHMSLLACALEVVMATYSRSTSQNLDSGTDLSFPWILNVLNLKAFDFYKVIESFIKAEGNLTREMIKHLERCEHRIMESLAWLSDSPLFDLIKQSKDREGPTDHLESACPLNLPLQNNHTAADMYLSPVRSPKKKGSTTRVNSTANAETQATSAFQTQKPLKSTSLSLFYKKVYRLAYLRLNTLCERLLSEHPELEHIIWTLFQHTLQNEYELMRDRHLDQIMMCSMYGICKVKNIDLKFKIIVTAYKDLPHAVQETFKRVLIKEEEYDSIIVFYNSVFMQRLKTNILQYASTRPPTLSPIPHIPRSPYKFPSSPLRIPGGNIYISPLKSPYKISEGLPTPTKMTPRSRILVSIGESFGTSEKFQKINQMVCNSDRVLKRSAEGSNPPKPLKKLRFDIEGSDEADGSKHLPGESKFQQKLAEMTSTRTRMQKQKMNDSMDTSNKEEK

Turning to “R1 peptide (synthetic p107 peptide encompassing the R1 region) M618A”, in assay [1] (setting [3]), the response was 0.3.
On the same count and under the same terms, the result for “R1 peptide (synthetic p107 peptide encompassing the R1 region) P620A” reads 0.2; that for “R1 peptide (synthetic p107 peptide encompassing the R1 region) V622A”, 0.88.
Take “R1 peptide (synthetic p107 peptide encompassing the R1 region) H619A”: in assay [1] (setting [4]), the response was determined as 0.38.
Regarding “R1 peptide (synthetic p107 peptide encompassing the R1 region) S615A; P616A; L617A”, the response was 0.25 in assay [1] (setting [5]) and 0.1 in assay [1] (setting [6]).
On to “R1 peptide (synthetic p107 peptide encompassing the R1 region) E624A”, for which the response in assay [1] (setting [3]) stood at 0.02.
Regarding “R1 peptide (synthetic p107 peptide encompassing the R1 region) R626A”, in assay [1] (setting [4]), the response stood at 0.08.
“R1 peptide (synthetic p107 peptide encompassing the R1 region) K623A”: in assay [1] (setting [4]), the response was found to be 0.03.
For the molecule “Myc-B55α wild type (from UniProt P63151) EEK-AAA”, the ratio to parent with Flag-pRB came out at 0.28.
For the molecule “R1 peptide (synthetic p107 peptide encompassing the R1 region) V625A”, the response in assay [1] (setting [3]) is 0.98.
As for “GFP-p107-R1 (four copies of R1) H619A; R621A; V622A; V625A”, the other: log2 ratio WT-Mut in the assay with PP2A/A amounted to 3.2; with B55α it was 5.5.
Turning to “R1 peptide (synthetic p107 peptide encompassing the R1 region) E624A; V625A; R626A”, the response was 0.56 in assay [1] (setting [5]) and 0.57 in assay [1] (setting [6]).
Regarding “R1 peptide (synthetic p107 peptide encompassing the R1 region) M618A; H619A; P620A”, the response in assay [1] (setting [5]) worked out at 0.43; in assay [1] (setting [6]), 0.41.
For the molecule pS615-R1 phosphopeptide, wildtype H619A, in assay [1] (setting [7]), the response was 0.6.
Same read-out and setting: with pS615-R1 phosphopeptide, wildtype R621A the figure was 0.82.
On to “R1 peptide (synthetic p107 peptide encompassing the R1 region) R621A; V622A; K623A”, for which the response in assay [1] (setting [5]) came out at 0.8; in assay [1] (setting [6]), 0.92.
For “R1 peptide (synthetic p107 peptide encompassing the R1 region) T627A; D628A; S629A”, in that order: 0.04 and 0.02.
In the case of “R1 peptide (synthetic p107 peptide encompassing the R1 region) R621A”, the response in assay [1] (setting [4]) was found to be 0.55.

B1: p107 (M612-S687) (domain or fragment, UniProt P28749 612-687, looked up)
chain: MPMSPLMHPRVKEVRTDSGSLRRDMQPLSPISVHERYSSPTAGSAKRRLFGEDPPKEMLMDKIITEGTKLKIAPSS
modifications: 15N-labeled
notes: p107 residues M612-S687, which include R1, R2 and R3; also called p107_(612-687); source: E. coli BL21, purified (HisTrap, TEV cleavage, heating at 80°C, SEC); not shown: His6, N-terminal, cleaved; MBP, N-terminal, cleaved
B1: in assay [2], the binding result is “binds”.
